Assay results as given in the supplement of paper PMC10724198.
± gives the standard deviation of the averaged measurements.

Tested on: Saccharomyces cerevisiae
Experiment: protein stability index of tFT-peptide fusion (C-terminal peptide) (PSI (0-1 scale)); higher = more stable (slower turnover)
Settings: genetic background: wild type; temperature: 30 C
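Note: PSI is a weighted mean of sequencing reads over stability bins, variants kept only with over 10 reads, mCherry proximal and sfGFP distal, peptide attached via GGGS linker.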

SAFLSFLRLVFL
protein stability index: 0.632 ± 0.011

LAVLRFHLRRHL
protein stability index: 0.668 ± 0.065

PPLRPPAPEPSP
protein stability index: 0.659 ± 0.0092

GKKNNENKYDMR
protein stability index: 0.7304 ± 0.0051

NKKKEKKKNEAK
protein stability index: 0.684 ± 0.016

REWDRRGRSHHF
protein stability index: 0.769 ± 0.069

GGVPGEGTGGRE
protein stability index: 0.644 ± 0.027

WGWPHQRDGFLG
protein stability index: 0.66 ± 0.007

CSLRVSADPLLT
protein stability index: 0.7315 ± 0.0071

CDDIIKGEIRIM
protein stability index: 0.722 ± 0.041

SGGISGCPPPVF
protein stability index: 0.689 ± 0.036

LVFRPVPVIFGL
protein stability index: 0.635 ± 0.017

NPCPSVLCSNCD
protein stability index: 0.67 ± 0.064

VFPSLCITSVCT
protein stability index: 0.53 ± 0.02

KSEKQKSNRKEF
protein stability index: 0.686 ± 0.071

RKIRKKRERKGE
protein stability index: 0.714 ± 0.2

YGGRQRCRGRVE
protein stability index: 0.825 ± 0.16

VGVSGAGFSWGG
protein stability index: 0.712 ± 0.0095

YRLAPGCSFHPT
protein stability index: 0.666 ± 0.028

LPFLFTSFAPAA
protein stability index: 0.776 ± 0.081

LVLLPSASPLLL
protein stability index: 0.71 ± 0.044

GQSRQKNEKKIK
protein stability index: 0.687 ± 0.0091

RKGDRAQRWRDL
protein stability index: 0.655 ± 0.12

HLFAISGGKERI
protein stability index: 0.6966 ± 0.0039

PAPPLPLAPPPL
protein stability index: 0.771 ± 0.025

RGSFGAWTVGGQ
protein stability index: 0.59 ± 0.026

VVHVGVWGLGRG
protein stability index: 0.64819 ± 0.00032

RGRCGRLSRAGA
protein stability index: 0.727 ± 0.041

ELKGHIPFTLSR
protein stability index: 0.703 ± 0.04

VLRGYRRVGVPP
protein stability index: 0.616 ± 0.016

GCAITVKRLWFG
protein stability index: 0.656 ± 0.076

KRESNSKQTEKV
protein stability index: 0.7 ± 0.099

VVSEQLDRGMRF
protein stability index: 0.694 ± 0.039

VRFGWCLGSGDG
protein stability index: 0.702 ± 0.068

CDFYGCAPAPRL
protein stability index: 0.7945 ± 0.0077

WGWGGGRGGMGG
protein stability index: 0.716 ± 0.022

GNRARRSGITRF
protein stability index: 0.809 ± 0.15

SVNRRTVYRKNK
protein stability index: 0.764 ± 0.17

GALVGWAMALGW
protein stability index: 0.679 ± 0.033

SLSIHPCHFGPS
protein stability index: 0.671 ± 0.03

PPLSPPHRPPHS
protein stability index: 0.71 ± 0.065

KMRKIRSKRLKW
protein stability index: 0.681 ± 0.028

EPIMVKKACTDG
protein stability index: 0.645 ± 0.029

HGSDLSILRIEI
protein stability index: 0.722 ± 0.07

FVASRFLRCLVL
protein stability index: 0.495 ± 0.017

KFHPRPPSRVLR
protein stability index: 0.6542 ± 0.0022

PPLLALSASRVT
protein stability index: 0.698 ± 0.017

LPPPPPASPPSP
protein stability index: 0.703 ± 0.01

EFPPPPSSRSCA
protein stability index: 0.712 ± 0.013

RTSKSCVEFTMG
protein stability index: 0.661 ± 0.011

LWGIAGSGVLVG
protein stability index: 0.635 ± 0.0069

PPPSSPTPPHSR
protein stability index: 0.738 ± 0.082

GIGRRIGSELSF
protein stability index: 0.668 ± 0.047

PPPLRLPQSRLP
protein stability index: 0.722 ± 0.09

LSLYGLLLPTFE
protein stability index: 0.714 ± 0.037

SPPPISPSLPPL
protein stability index: 0.728 ± 0.029

RLCLLVVPLLPP
protein stability index: 0.665 ± 0.055

SHALSFSFSLLP
protein stability index: 0.6367 ± 0.0052

QKKIKKPKSKKH
protein stability index: 0.736 ± 0.031

STGLRISPPAYM
protein stability index: 0.677 ± 0.0069

FVLGGLHAGYVL
protein stability index: 0.7146 ± 0.0038

FCHLGSPATDFR
protein stability index: 0.646 ± 0.013

PSRLSLLWVNPP
protein stability index: 0.8 ± 0.081

WCKLLGGSVFGE
protein stability index: 0.671 ± 0.023

GRPGISESGIIG
protein stability index: 0.7103 ± 0.0071

PPTPPPNPPSRY
protein stability index: 0.715 ± 0.021

SLVSGPRPPSAF
protein stability index: 0.737 ± 0.089

PLPFSTSPYAGR
protein stability index: 0.675 ± 0.011

KEREGSRKETKH
protein stability index: 0.694 ± 0.01

LNVVLTRTSVRY
protein stability index: 0.657 ± 0.041

HFIDFVVVSFSI
protein stability index: 0.548 ± 0.095

PRFLGWGGCLWV
protein stability index: 0.7265 ± 0.0045

VYLRSMLSLNIR
protein stability index: 0.676 ± 0.051

PPPPPPSPPRLP
protein stability index: 0.592 ± 0.03

GVSKALAAAVDA
protein stability index: 0.6874 ± 0.0061

SPGCPNRGAFEI
protein stability index: 0.871 ± 0.07

PSPPPLLTRPLP
protein stability index: 0.713 ± 0.1

GKGDEPKAPTDR
protein stability index: 0.65 ± 0.028

GVPALLVGIDLV
protein stability index: 0.668 ± 0.027

DLARSLVQSLSG
protein stability index: 0.675 ± 0.017

PTRPAMILPNRY
protein stability index: 0.698 ± 0.049

QKATRHRTRPRR
protein stability index: 0.688 ± 0.12

KKIKKKRTEPQP
protein stability index: 0.694 ± 0.02

IFPRPHVDIPLL
protein stability index: 0.922 ± 0.075

VLRSSFYLSFPR
protein stability index: 0.611 ± 0.013

ASPFTYPDFFFP
protein stability index: 0.661 ± 0.046

LPPPPSAPHPSP
protein stability index: 0.668 ± 0.023

RPLVSRLPIFIR
protein stability index: 0.506 ± 0.014

LGGTGGFRGVRG
protein stability index: 0.691 ± 0.022

LPPPPPPPPPPP
protein stability index: 0.60887 ± 2.4e-05

FRSENSWLLCSW
protein stability index: 0.786 ± 0.048

IVTSPRPPRCTS
protein stability index: 0.7193 ± 0.0051

RNTYKKREKNKK
protein stability index: 0.7363 ± 0.0025

RAPPPPARPALP
protein stability index: 0.687 ± 0.028

GGWAHGEGAGDC
protein stability index: 0.614 ± 0.028

NMMTSVLEGGVG
protein stability index: 0.699 ± 0.16

GAVLSYIAPTPL
protein stability index: 0.7404 ± 0.0055

PLPPLLAGAGLS
protein stability index: 0.704 ± 0.018

KKKKKKTTPKTN
protein stability index: 0.745 ± 0.038

RGQTSLTGERNK
protein stability index: 0.701 ± 0.055

GCCGQGLPWNPP
protein stability index: 0.562 ± 0.0077
